As usually defined, the Km is the concentration of substrate that gives half-maximal velocity. In general, kcat refers to the number of substrate molecules converted per active site and unit of time at saturation. What is called kcat/Km is the turnover number divided by the Michaelis constant.

One substance from PMC6372703, “A thermostable laccase from Thermus sp. 2.9 and its potential for delignification of Eucalyptus biomass” (AMB Express, 2019) can be followed below.

The data set relates to CCn1c(=NN=c2sc3cc(S(=O)(=O)O)ccc3n2CC)sc2cc(S(=O)(=O)O)ccc21. Put plainly: purified protein. The settings on record: 20 mM sodium acetate, pH 5, 60 °C, 1 mM CuSO4.

For LAC_2.9 (Thermus sp. 2.9), the Km came out at 590 ± 80 µM, the kcat was 1 ± 0.04 s⁻¹ and the kcat/Km stood at 1700 ± 200 M⁻¹ s⁻¹.
